# What was measured:
# [1] = molecular target: T1, human APLP2 extracellular domain expressed with a C-terminal myc-myc-hexahistidine tag (human, UniProt Q06481 32-692); experiment: SPR (Biacore 4000), antibody captured on anti-human Fc, hAPLP2-MMH injected, 37 C
# T1 construct: also called hAPLP2-MMH; APLP2.mmh
# Protocol: Equilibrium dissociation constants (KD values) for HER2 and APLP2 binding to purified anti-HER2xAPLP2 bispecific and parental antibodies were determined using a real-time surface plasmon resonance biosensor using a Biacore 4000 instrument. The Biacore sensor surface was first derivatized by amine coupling with a monoclonal mouse anti-human Fc antibody (GE, Cat #BR-1008-39) to capture anti-HER2xAPLP2 bispecific monoclonal antibodies. […] Kinetic association rate constant (ka) and dissociation rate constant (kd) were determined by fitting the real-time sensorgrams to a 1:1 binding model using Scrubber 2.0c curve fitting software. Binding dissociation equilibrium constants (KD) and dissociative half-lives (t1/2) were calculated from the kinetic rate constants as: […]
# [2] = molecular target: human HER2 expressed on cells (cancer cell lines and normal primary cultures) (human, UniProt P04626 23-1255); experiment: cell-based or functional assay
# [3] = molecular target: T1, human APLP2 extracellular domain …; experiment: SPR, antibody captured, hAPLP2-MMH injected, 25 C
binder,measurement,setting,value
"H4H13050P2 (antibody, V domains shown, Names starting with H4 or H4H denote fully human antibodies; also called anti-HER2 parental antibody) VH: QVQLVQSGPEVKKPGASVKVSCKASGYTFPNFGISWVRQAPGQGLEWMGWIAPYNVATNYAPKLQGRVTMTTDTSTSTAYMELRSLRSDDTAVYYCARWGAGYMGYYYYGMDVWGQGTTVTVSS VL: not shown",100 nM hAPLP2-MMH Bound (RU),[1],-3 RU
"H4H25018D-SMCC-DM1 (bispecific antibody, IgG4, V domains shown, SMCC-DM1 on lysines, sites not stated) VH 1: QVQLQESGPGLVKPSQTLSLTCTVSGGSISSGHYFWSWIRQHPGKGLEWIGYIFYSGSTHYNPSLKSRLSISVDTSKNQFSLRLTSVTAADTAVYYCAREEGDYNFWDVDYVPGHFDYWGQGTLVTVSS VH 2: EVQLVESGGGLVQPGRSLRLSCVASGFTFADYAMHWVRQAPGKGLEWVSGISWNSGNIDYADSVKGRFTISRDNAKNSLYLQMNSLRTEDTALYYCAKVRIVVAGYYYYYYGMDVWGQGTTVTVSS VL: not shown","IC50 (nM) of cell killing, JIMT-1 cells, 6 days, nuclei count",[2],0.07 nM
"H4H13055P2 (antibody, V domains shown, fully human antibody; also called anti-HER2 parental antibody) VH: QVQLQESGPGLVKPSQTLSLTCTVSGGSISSGHYFWSWIRQHPGKGLEWIGYIFYSGSTHYNPSLKSRLSISVDTSKNQFSLRLTSVTAADTAVYYCAREEGDYNFWDVDYVPGHFDYWGQGTLVTVSS VL: not shown",100 nM hAPLP2-MMH Bound (RU),[1],0 RU
same,binding result,[1],no binding (tested: 300 nM highest concentration injected)
"H4H25018D-Compound II (bispecific antibody, V domains shown, Compound II on reduced interchain cysteines) VH 1: QVQLQESGPGLVKPSQTLSLTCTVSGGSISSGHYFWSWIRQHPGKGLEWIGYIFYSGSTHYNPSLKSRLSISVDTSKNQFSLRLTSVTAADTAVYYCAREEGDYNFWDVDYVPGHFDYWGQGTLVTVSS VH 2: EVQLVESGGGLVQPGRSLRLSCVASGFTFADYAMHWVRQAPGKGLEWVSGISWNSGNIDYADSVKGRFTISRDNAKNSLYLQMNSLRTEDTALYYCAKVRIVVAGYYYYYYGMDVWGQGTTVTVSS VL: not shown","IC50 (nM) of cell killing, JIMT-1 cells, 6 days, nuclei count",[2],0.3 nM
"H4H25019D-Compound I (bispecific antibody, V domains shown, Compound I on lysines, sites not stated) VH 1: QVQLVQSGPEVKKPGASVKVSCKASGYTFPNFGISWVRQAPGQGLEWMGWIAPYNVATNYAPKLQGRVTMTTDTSTSTAYMELRSLRSDDTAVYYCARWGAGYMGYYYYGMDVWGQGTTVTVSS VH 2: EVQLVESGGGLVQPGRSLRLSCVASGFTFADYAMHWVRQAPGKGLEWVSGISWNSGNIDYADSVKGRFTISRDNAKNSLYLQMNSLRTEDTALYYCAKVRIVVAGYYYYYYGMDVWGQGTTVTVSS VL: not shown","IC50 (nM) of cell killing, JIMT-1 cells, 6 days, nuclei count",[2],0.75 nM
"H4H25019D-SMCC-DM1 (bispecific antibody, V domains shown, SMCC-DM1 on lysines, sites not stated) VH 1: QVQLVQSGPEVKKPGASVKVSCKASGYTFPNFGISWVRQAPGQGLEWMGWIAPYNVATNYAPKLQGRVTMTTDTSTSTAYMELRSLRSDDTAVYYCARWGAGYMGYYYYGMDVWGQGTTVTVSS VH 2: EVQLVESGGGLVQPGRSLRLSCVASGFTFADYAMHWVRQAPGKGLEWVSGISWNSGNIDYADSVKGRFTISRDNAKNSLYLQMNSLRTEDTALYYCAKVRIVVAGYYYYYYGMDVWGQGTTVTVSS VL: not shown","IC50 (nM) of cell killing, JIMT-1 cells, 6 days, nuclei count",[2],0.13 nM
"H4H25019D-Compound II (bispecific antibody, V domains shown, Compound II on reduced interchain cysteines) VH 1: QVQLVQSGPEVKKPGASVKVSCKASGYTFPNFGISWVRQAPGQGLEWMGWIAPYNVATNYAPKLQGRVTMTTDTSTSTAYMELRSLRSDDTAVYYCARWGAGYMGYYYYGMDVWGQGTTVTVSS VH 2: EVQLVESGGGLVQPGRSLRLSCVASGFTFADYAMHWVRQAPGKGLEWVSGISWNSGNIDYADSVKGRFTISRDNAKNSLYLQMNSLRTEDTALYYCAKVRIVVAGYYYYYYGMDVWGQGTTVTVSS VL: not shown","IC50 (nM) of cell killing, JIMT-1 cells, 6 days, nuclei count",[2],0.9 nM
"H4H25018D-Compound I (bispecific antibody, V domains shown, Compound I on lysines, sites not stated) VH 1: QVQLQESGPGLVKPSQTLSLTCTVSGGSISSGHYFWSWIRQHPGKGLEWIGYIFYSGSTHYNPSLKSRLSISVDTSKNQFSLRLTSVTAADTAVYYCAREEGDYNFWDVDYVPGHFDYWGQGTLVTVSS VH 2: EVQLVESGGGLVQPGRSLRLSCVASGFTFADYAMHWVRQAPGKGLEWVSGISWNSGNIDYADSVKGRFTISRDNAKNSLYLQMNSLRTEDTALYYCAKVRIVVAGYYYYYYGMDVWGQGTTVTVSS VL: not shown","IC50 (nM) of cell killing, JIMT-1 cells, 6 days, nuclei count",[2],0.2 nM
"H4xH21387P2 (antibody, V domains shown, fully human antibody; also called anti-APLP2 parental antibody) VH: EVQLVESGGGLVQPGRSLRLSCVASGFTFADYAMHWVRQAPGKGLEWVSGISWNSGNIDYADSVKGRFTISRDNAKNSLYLQMNSLRTEDTALYYCAKVRIVVAGYYYYYYGMDVWGQGTTVTVSS VL: not shown",100 nM hAPLP2-MMH Bound (RU),[1],114 RU
same,Kd,[1],124 nM
same,t½,[1],1.1 min
same,90 nM hAPLP2-MMH Bound (RU),[3],60.5 RU
same,Kd,[3],11.3 nM
same,t½,[3],11 min
"H4xH21362P2 (antibody, V domains shown, fully human antibody; also called anti-APLP2 parental antibody) VH: EVQLVESGGGLVQPGGSLRLSCAASGFTFSTYVMSWVRQAPGKGPEWVSGISGRTGTTYYADSVKGRFTISRDNSKNTLYLQMNSLRAEDTAVYYCASRITAAGRGYYYYYGMDVWGRGTTVTVSS VL: not shown",100 nM hAPLP2-MMH Bound (RU),[1],34 RU
same,Kd,[1],176 nM
same,t½,[1],1.3 min
same,90 nM hAPLP2-MMH Bound (RU),[3],36.6 RU
same,Kd,[3],11.2 nM
same,t½,[3],10.9 min
"H4xH21371P2 (antibody, V domains shown, fully human antibody; also called anti-APLP2 parental antibody) VH: QVQLVQSGVEVKKPGASVKVSCKASGYTFTDYGISWVRQAPGQGLEWMGWISAHNGNTNYAQKLQGRVTMTTDTSTNTAYMELRSLRSDDTAVYYCARRNWKYFDYWGQGTLVTVSS VL: not shown",100 nM hAPLP2-MMH Bound (RU),[1],48 RU
same,Kd,[1],899 nM
same,t½,[1],0.03 min
same,90 nM hAPLP2-MMH Bound (RU),[3],52.1 RU
same,Kd,[3],21.7 nM
same,t½,[3],0.5 min

# From patent US20210246224A1 (Regeneron, published 2021)
